B1: AZD8895 Fab (Fab, V domains shown)
VH: QMQLVQSGPEVKKPGTSVKVSCKASGFTFMSSAVQWVRQARGQRLEWIGWIVIGSGNTNYAQKFQERVTITRDMSTSTAYMELSSLRSEDTAVYYCAAPYCSSISCNDGFDIWGQGTMVTVSS
VL: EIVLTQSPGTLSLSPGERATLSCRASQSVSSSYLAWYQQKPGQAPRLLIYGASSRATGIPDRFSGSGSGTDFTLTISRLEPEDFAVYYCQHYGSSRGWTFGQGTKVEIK
B2: AZD1061 Fab (Fab, V domains shown)
VH: EVQLVESGGGLVKPGGSLRLSCAASGFTFRDVWMSWVRQAPGKGLEWVGRIKSKIDGGTTDYAAPVKGRFTISRDDSKNTLYLQMNSLKTEDTAVYYCTTAGSYYYDTVGPGLPEGKFDYWGQGTLVTVSS
VL: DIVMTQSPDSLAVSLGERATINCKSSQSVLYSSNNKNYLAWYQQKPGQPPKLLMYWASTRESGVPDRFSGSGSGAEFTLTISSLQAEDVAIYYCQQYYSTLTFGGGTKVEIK

Molecular target: D614G RBD
Assay: BLI

Binder	Kd [nM]	koff [s⁻¹]
B1	9.79	0.00603
B2	14.5	0.00217

From PMC9250508 (2022)
